Experimental data reported in patent publication US20130324704A1 (published 2013).
Changes are numbered by the printed parent chain.

T1: Mouse EGFL7 (mEGFL7-CB-His) (mouse, UniProt Q9QXT5 22-275)
T1 construct: Limits of the construct and the CB(-His) tag are not described; also called murine EGFL7
T1 sequence: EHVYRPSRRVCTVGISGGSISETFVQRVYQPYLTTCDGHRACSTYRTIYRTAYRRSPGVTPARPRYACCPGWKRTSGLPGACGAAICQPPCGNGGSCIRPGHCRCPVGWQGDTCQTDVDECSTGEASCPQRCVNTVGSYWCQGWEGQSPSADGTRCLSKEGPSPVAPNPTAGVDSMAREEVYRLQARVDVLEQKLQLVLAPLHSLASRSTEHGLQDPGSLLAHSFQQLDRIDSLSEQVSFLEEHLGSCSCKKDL

B1: hu18F7.v6J, IgG (antibody, V domains shown)
VH: EVQLVESGGGLVQPGGSLRLSCAASGYTFIDYYMNWVRQAPGKGLEWVGDINLDNSGTHYNQKFKGRFTISRDKSKNTAYLQMNSLRAEDTAVYYCAREGVYHDYDDYAMDYWGQGTLVTVSS
VL: DIQMTQSPSSLSASVGDRVTITCRTSQSLVHINSITYLHWYQQKPGKAPKLLIYRVSNRFSGVPSRFSGSGSGTDFTLTISSLQPEDFATYYCGQSTHVPLTFGQGTKVEIK
notes: Variant of 18F7.v6; Expressed as IgG
B2: 4F11.v6, IgG (antibody, V domains shown)
VH: EVQLVESGGGLVQPGGSLRLSCAASGHTFTTYGMSWVRQAPGKGLEWVGWINTHSGVPTYADDFKGRFTISRDNSKNTVYLQMNSLRAEDTAVYYCARLGSSAVDYWGQGTLVTVSS
VL: DIQMTQSPSSLSASVGDRVTITCKASQSVDYDGDSYMSWYQQKPGKAPKLLIYGASYLESGVPSRFSGSGSGTDFTLTISSLQPEDFATYYCQQNNEDPYTFGQGTKVEIK
B3: 4F11.v10, IgG (antibody, V domains shown)
VH: B2 VH with S102Y
VL: B2 VL

Legend:
[1] = biological target: T1, Mouse EGFL7 (mEGFL7-CB-His); assay: SPR (Biacore) at 37 C, IgG over immobilized mEGFL7-CB
[2] = biological target: EGFL7 coated on plates in the Cell Adhesion Assay (mouse EGFL7 (mEGFL7-CB-His) or human EGFL7 (EGFL7-CB-His)); …; assay: cell-based or functional assay

Row | Binder | Kd [1] | Cell Adhesion Assay Variant/ch4F11 (fold) [2]
1 | B1 | 6.8 nM | –
2 | B2 | – | 4.01 fold
3 | B3 | – | 4.38 fold
